B1: KRT34 (parent)
chain: YQSYFKTIEELQQKILCAKAENAR
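Note: lentivirally expressed fusions sorted by FACS into six bins by GFP to DsRed ratio, PSI derived from sequencing read proportions per bin multiplied by bin number.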

Variants of: B1
Assay: protein stability index of a GFP-peptide fusion (GPS, HEK-293T) (PSI 1-6); higher = more stable
Details: c terminus: a fixed tail appended
For IQSYFKTIEELQQKILCAKAENAR, the protein stability index was 1.52.
Work on TQSYFKTIEELQQKILCAKAENAR yielded a protein stability index of 3.08.
In the case of SQSYFKTIEELQQKILCAKAENAR, the protein stability index is reported as 2.93.
Variant EQSYFKTIEELQQKILCAKAENAR has a protein stability index of 4.59.
Work on CQSYFKTIEELQQKILCAKAENAR yielded a protein stability index of 2.23.
Variant HQSYFKTIEELQQKILCAKAENAR has a protein stability index of 2.56.
Work on KQSYFKTIEELQQKILCAKAENAR yielded a protein stability index of 2.88.
Variant FQSYFKTIEELQQKILCAKAENAR has a protein stability index of 1.96.
Variant QQSYFKTIEELQQKILCAKAENAR has a protein stability index of 3.45.
YQSYFMTIEELQQKILCAKAENAR showed a protein stability index of 2.1.
YQSYFDTIEELQQKILCAKAENAR gave a protein stability index of 2.01.
Work on YQSYFATIEELQQKILCAKAENAR yielded a protein stability index of 1.96.
Work on YQSYFLTIEELQQKILCAKAENAR yielded a protein stability index of 2.3.
Work on YQSYFETIEELQQKILCAKAENAR yielded a protein stability index of 1.85.
In the case of YQSYFVTIEELQQKILCAKAENAR, the protein stability index is reported as 2.83.
YQSYFRTIEELQQKILCAKAENAR gave a protein stability index of 1.82.
For YQSYFHTIEELQQKILCAKAENAR, the protein stability index was 2.24.
For YQSYFYTIEELQQKILCAKAENAR, the protein stability index was 1.66.
YQSYFITIEELQQKILCAKAENAR gave a protein stability index of 1.91.
In the case of YQSYFCTIEELQQKILCAKAENAR, the protein stability index is reported as 1.51.
For YQSYFSTIEELQQKILCAKAENAR, the protein stability index was 1.74.
YQSYFGTIEELQQKILCAKAENAR gave a protein stability index of 2.09.
Variant YQSYFWTIEELQQKILCAKAENAR has a protein stability index of 2.18.
With YQSYFPTIEELQQKILCAKAENAR the protein stability index was 1.81.
YQSYFTTIEELQQKILCAKAENAR showed a protein stability index of 2.67.
YQSYFQTIEELQQKILCAKAENAR gave a protein stability index of 2.53.
For YQSYFKTKEELQQKILCAKAENAR, the protein stability index was 2.47.
YQSYFKTHEELQQKILCAKAENAR gave a protein stability index of 1.62.
Work on YQSYFKTVEELQQKILCAKAENAR yielded a protein stability index of 2.85.
In the case of YQSYFKTFEELQQKILCAKAENAR, the protein stability index is reported as 2.23.
YQSYFKTLEELQQKILCAKAENAR showed a protein stability index of 1.98.
Work on YQSYFKTAEELQQKILCAKAENAR yielded a protein stability index of 2.26.
YQSYFKTGEELQQKILCAKAENAR gave a protein stability index of 1.48.
Variant YQSYFKTWEELQQKILCAKAENAR has a protein stability index of 1.42.
For YQSYFKTDEELQQKILCAKAENAR, the protein stability index was 2.59.
YQSYFKTTEELQQKILCAKAENAR showed a protein stability index of 1.35.
YQSYFKTPEELQQKILCAKAENAR gave a protein stability index of 2.24.
Variant YQSYFKTSEELQQKILCAKAENAR has a protein stability index of 1.77.
YQSYFKTYEELQQKILCAKAENAR gave a protein stability index of 2.52.
With YQSYFKTQEELQQKILCAKAENAR the protein stability index was 1.37.
YQSYFKTREELQQKILCAKAENAR gave a protein stability index of 2.09.
Work on YQSYFKTMEELQQKILCAKAENAR yielded a protein stability index of 2.26.
In the case of YQSYFKTCEELQQKILCAKAENAR, the protein stability index is reported as 1.57.
Work on YQSYFKTEEELQQKILCAKAENAR yielded a protein stability index of 2.6.
Variant YQSYWKTIEELQQKILCAKAENAR has a protein stability index of 1.32.
In the case of YQSYEKTIEELQQKILCAKAENAR, the protein stability index is reported as 4.08.
For YQSYQKTIEELQQKILCAKAENAR, the protein stability index was 2.53.
Variant YQSYYKTIEELQQKILCAKAENAR has a protein stability index of 1.62.
Variant YQSYMKTIEELQQKILCAKAENAR has a protein stability index of 2.62.
For YQSYLKTIEELQQKILCAKAENAR, the protein stability index was 1.81.
Work on YQSYRKTIEELQQKILCAKAENAR yielded a protein stability index of 1.6.
Variant YQSYNKTIEELQQKILCAKAENAR has a protein stability index of 3.02.
For YQSYIKTIEELQQKILCAKAENAR, the protein stability index was 1.94.
Variant YQSYKKTIEELQQKILCAKAENAR has a protein stability index of 2.84.
YQSYTKTIEELQQKILCAKAENAR gave a protein stability index of 2.12.
For YQSYVKTIEELQQKILCAKAENAR, the protein stability index was 1.9.
With YQSYAKTIEELQQKILCAKAENAR the protein stability index was 2.01.
YQSYGKTIEELQQKILCAKAENAR showed a protein stability index of 3.23.
YQSYDKTIEELQQKILCAKAENAR gave a protein stability index of 3.68.
Variant YQSYHKTIEELQQKILCAKAENAR has a protein stability index of 2.34.
Variant YQSYPKTIEELQQKILCAKAENAR has a protein stability index of 1.89.
YQSYSKTIEELQQKILCAKAENAR showed a protein stability index of 2.73.
For YQSYCKTIEELQQKILCAKAENAR, the protein stability index was 2.24.
In the case of YQSYFKTIDELQQKILCAKAENAR, the protein stability index is reported as 2.25.
Variant YQSYFKTIHELQQKILCAKAENAR has a protein stability index of 2.46.
Work on YQSYFKTIAELQQKILCAKAENAR yielded a protein stability index of 1.77.
In the case of YQSYFKTINELQQKILCAKAENAR, the protein stability index is reported as 2.45.
In the case of YQSYFKTIMELQQKILCAKAENAR, the protein stability index is reported as 3.64.
YQSYFKTIFELQQKILCAKAENAR gave a protein stability index of 1.73.
For YQSYFKTILELQQKILCAKAENAR, the protein stability index was 1.53.
YQSYFKTIKELQQKILCAKAENAR gave a protein stability index of 2.2.
For YQSYFKTICELQQKILCAKAENAR, the protein stability index was 1.87.
For YQSYFKTIIELQQKILCAKAENAR, the protein stability index was 2.
For YQSYFKTIGELQQKILCAKAENAR, the protein stability index was 1.64.
YQSYFKTIPELQQKILCAKAENAR showed a protein stability index of 1.29.
With YQHYFKTIEELQQKILCAKAENAR the protein stability index was 1.5.
For YQTYFKTIEELQQKILCAKAENAR, the protein stability index was 1.61.
In the case of YQMYFKTIEELQQKILCAKAENAR, the protein stability index is reported as 1.77.
Variant YQKYFKTIEELQQKILCAKAENAR has a protein stability index of 1.96.
In the case of YQYYFKTIEELQQKILCAKAENAR, the protein stability index is reported as 2.13.
YQLYFKTIEELQQKILCAKAENAR showed a protein stability index of 1.77.
For YQNYFKTIEELQQKILCAKAENAR, the protein stability index was 2.23.
Work on YQEYFKTIEELQQKILCAKAENAR yielded a protein stability index of 1.67.
For YQRYFKTIEELQQKILCAKAENAR, the protein stability index was 1.79.
Variant YQCYFKTIEELQQKILCAKAENAR has a protein stability index of 1.96.
For YQQYFKTIEELQQKILCAKAENAR, the protein stability index was 2.3.
Variant YQGYFKTIEELQQKILCAKAENAR has a protein stability index of 1.85.
Work on YQIYFKTIEELQQKILCAKAENAR yielded a protein stability index of 1.61.
For YQAYFKTIEELQQKILCAKAENAR, the protein stability index was 2.69.
YQFYFKTIEELQQKILCAKAENAR gave a protein stability index of 1.8.
YQVYFKTIEELQQKILCAKAENAR showed a protein stability index of 1.62.
YQDYFKTIEELQQKILCAKAENAR showed a protein stability index of 1.98.
YQPYFKTIEELQQKILCAKAENAR gave a protein stability index of 1.97.
With YQWYFKTIEELQQKILCAKAENAR the protein stability index was 1.54.

— the supplement of paper PMC10567573
